Results taken from the DeepSol protein solubility set.

Assay: soluble on expression in E. coli; label from the status in PepcDB or PDB records
With “ADLPGKGITVNPVQSTITEETFQTLLVSRALEKLGYTVNKPSEVDYNVGYTSLASGDATFTAVNWTPLHDNMYEAAGGDKKFYREGVFVNGAAQGYLIDKKTADQYKITNIAQLKDPKIAKLFDTNGDGKADLTGCNPGWGCEGAINHQLAAYELTNTVTHNQGNYAAMMADTISRYKEGKPVFYYTWTPYWVSNELKPGKDVVWLQVPFSALPGDKNADTKLPNGANYGFPVSTMHIVANKAWAEKNPAAAKLFAIMQLPVADINAQNAIMHDGKASEGDIQGHVDGWIKAHQQQFDGWVNEALAAQK” the “soluble on expression in E. coli” value was “soluble”. With “MRVALFITCLADHFYPKAGVAPVRLLRALGVKVDFPKGQTCCGQPAFNAGYWDEARPLAKRTLEVFEEAEYVVLPSGSCTSMVKNHYPELLPGNREALAMAEKTYELSQFLVRVLGVEKLGEGLKGRRVAYHHGCHALRELGVREEPLLLLQNAGAEVLPWEAWEECCGFGGLFSVKLPEVSLAMADRKLATLPKAEVLTSTDAGCLLHLAGRLGKKGENLRVAPLATLLWEAYAG” the “soluble on expression in E. coli” value was “soluble”. For “MNNPKPCEWKSNELSRGYIADYKAFNFVDGEGVRCSLYVSGCPFHCEGCYNKAAQSFKYGKPYTKELEDDILKDIGHESVQGLTLLGGEPFLNTATCLSVVKRIRATYGKTKDIWSWTGYTWDEMMQETTDKLELLSLIDVLVDGRFEQKLFDPNLAFRGSSNQRIIDVQKSLAADEVVLYELLEHHHHHH”, the “soluble on expression in E. coli” value was “soluble”. In the case of “MGSDKIHHHHHHMFFYNIHQPMKTLIENLTSDLLPNQIFQTGFSFLIILKGNSLLKLDSNVLIFIMSGTMKVSSAQQELATVRERHIFFWDKEDDYTCEMLSDSQVILFAFGDLIVHDLLTFRPFGAISDSSVSKDVGLKFAEPLNSFLQLLAQYMEMNLYDLSLYIAKQRELFYILNSVYNEQELAILFSSLTEQSSRFKEQILENYLSAKNVGELASLLGYGVTNFRAKFKEQFGVSVYRWLLNRKSQHIIYRITVYGDEFSQIIDDFGFSSPSHFNKFCRSQYGLTPCELRKKLKTNNNS”, the “soluble on expression in E. coli” value is reported as “not soluble”. In the case of “MGSDKIHHHHHHMETAAELKTRLIAQAKAEGFVSVRLCRPWDVPEVPERLRAFLEAGYHGQMKWMAERINWRENPAALWPEARSVIMLAESYTPDEDPMAVVGLPDRAAISVYARGKDYHDLVKKRLKRLARWLIEEAPDEAQVKVFVDTAPVPEKALGQASGLGWQGKHTNLVSRDWGNWAFLGSIFTTLDLPVDAPEPDRCGSCRACLTACPTDAFPAPYQLDARRCISYLTIEHKGPIEEELRTKLGNRIYGCDDCLAACPWNKFAVEASDMRYAAREGTIAPPLAELSQLDDAAFRARFSGSPIKRIGRDRFVRNVLYAIGNSGDAGLHVFAQALCDDPDPTVAEAARWAAARLP”, the “soluble on expression in E. coli” value is reported as “not soluble”. With “MISKTSILLLGFACAAVGANYIESAIFKFDDSCEPLEEPRKPEVAKCYEPSTSLPKTLEEYRAMGYDWGEFVHDDKADQAPEGLDEVFTYPMVPFIGMSLLASKKF” the “soluble on expression in E. coli” value was “not soluble”. With “MNHTADNCIFCKIIDGQILCSKVYEDEHVLAFLDISQVTKGHTLVIPKVHKQDIFALTPEIASHIFSVVPKIANAIKAEFNPVGFNLLNNNGEKAGQTVFHFHLHLIPRYGENDGFGAVWKSHQNEYTMENLQNIASTIANSVK” the “soluble on expression in E. coli” value was “not soluble”. For “MGSDKIHHHHHHMIDIHCHILPEIDDGPSSLEESLVMAREAVKEGITKIIATPHHLHPSYNNKAAVVKEKVRKLNEAIQKENIPLEILPGQEVRISGDVMDGLVSGDILTLADQGKYLFVEFSSNHVSRYADKLFFQLLSQDIIPIIVHPERNHEFLKNPGLLYDLVNGGALTQITTSSLTGHLGKKIKKFTEQIIEADLTHFLASDAHNVTERTFRIREAFALVEKNYGSSKAYEFQENAELLVENQHVMGPPPQPIVKKKLLGIF”, the “soluble on expression in E. coli” value was “not soluble”. For “MVRKMNKLAKRLASTSKSRQPEPESDSDGSEFDFDNAIEEKPMEAMDIEEVESDGDDDERELQAAFAAGLLKDGLNIQVAKKRPIINKSAEMKEKLAEITKDLPWVETLEVVTPHSEMDKKVENDDFQRELNFYKQAEKAVQIAYPRLLNLGIKVLRPTDYYAEMAKSDTHMQKVRKRLLGIQEMKERQEAFRRIREEKKFAVKVQKEVLAAKNTEKKNLAEAVKKHKKGMKQQLEDMLNNVKRHGLDQDDDAPTGAFGDRLGGRGGAGRGGAGRGGSMRNAGELKRKLKSDKFGYGGKKKGMKRNNKESFNDLFGAPRGGFGGRGRGGGRGGRGGRGRR”, the “soluble on expression in E. coli” value was “not soluble”. For “MQRYNSTYVVKRDGRKEDVHFDKITSRIQKLSYGLNMDFVDPVAVAIKVISGLYKGVTTVELDNLAAETAASMTTQHPEYALLAARIAVSNLHKKTNKVFSEVMKTLHEFHHPHTGKHAPMISDETWAIIEKNADKLNSAIVYDRDYSYTYFGFKTLERSYLLKINKEIVERPQQMLMRVSIGIHGDDITSAIETYNLMSERYMTHASPTLFNSGTCRPQMSSCFLLTMSEDSILGIYDTLKQCALISKSAGGIGLNVHKIRATGSVIAGTNGTSNGLIPMLRVYNNTARYVDQGGNKRPGAFAIYLEPWHADIFEFVSLRKNTGPEEERARDLFLALWIPDLFMKRVEKDQEWSLMCPCECPGLDDCWGEEFEALYAKYEAEGRVRKTVKARKLWEHIVSNQIETGLPYITYKDAANRKSNQQNLGTIKCSNLCTEIIEYSAPDEIAVCNLASIALNRYVTPEKKFDFVKLAEVTKVITRNLNKIIDVNYYPVEEARNSNMRHRPIGLGVQGLADCFMLMRYPFTSAEARDLNKRIFETIYYAALEASCELAELNGPYSTYEGSPVSKGQLQFDMWGVTPTDQCDWATLRKKIAKHGIRNSLLMAPMPTASTAQILGNNESIEPYTSNIYSRRVLSGDFQIVNPHMLKDLVERGLWTDEMKNRLIANNGSIQNIDGIPSDIKELYRTVWEISQKDIIEMAADRGAYIDQSQSLNIHMAKPSYAGITSMHFYGWKKGLKTGMYYLRTKPAVNAVQFTVDKNALKTNQQAETPATVAESQDEGCLMCSG”, the “soluble on expression in E. coli” value was “not soluble”. In the case of “MEIFLSDPISAECPCGPDLEYDPEYLLLFTRAAPREEAQYGDFVSTPENINWAELERDAHRLLMRSKDIRILVVLLRCRIQQAGARGLSEALTLLETLCSTYPDAIHPQLLATEDITAEDAAVARSNALAALLDHEGVMADIRGITLSNNAAMRLQVRDVERSLSALRPADALAPESVRQQLADLEARGTLPLDAFRQAAETTERLQRHARETLNDQAPDFSRLTQLLALLPGAVQSTTPEILPQPQAEQPENATIVHTEQMQAEQIALPVHIAEEISPMTGAEPRQIRDRNDALERLRVIRRWFEHSEPSSPTIPLLRQAERLVGKRVSEVINEIPVELLEKWDALE”, the “soluble on expression in E. coli” value is reported as “not soluble”. With “MHYFSEKPTTKSDVKIVEDILRGKKLKFKTDSGVFSYGKVDKGTKILVENVVVDKDDDILDLGCGYGVIGIALADEVKSTTMADINRRAIKLAKENIKLNNLDNYDIRVVHSDLYENVKDRKYNKIITNPPIRAGKEVLHRIIEEGKELLKDNGEIWVVIQTKQGAKSLAKYMKDVFGNVETVTIKGGYRVLKSKKL” the “soluble on expression in E. coli” value was “soluble”. For “MGHHHHHHSHMCNGSFTEKLKLLFKLHIPPAYTEVKSKDASKGDELSKEELLYFSQLHVSKPANEKEAESAKHSPEKGKGKIDIQAYLSQWQDELFKKEENIKDLPRMNQSQFIQFSKTLYNLFHEDPEEESLYQAIAVVTSLLLRMEEVGRKLHSPTSSAKGFSGTVCGSGGPSEEKTGSHLEKDPCSFREEPQWSFAFEQILASLLNEPALVRFFEKPIDVKAKLENARISQLRSRTKM”, the “soluble on expression in E. coli” value was “soluble”. In the case of “MGSDKIHHHHHHMSDDLGSELQLLYLFVHLVNAGSFSQAAKELDMPIATVSRKLAKLEEKLDKQLFMRSTRKLRLTEEGLALFQRYQSVIAQFDELSGVGSDKPEGTLRIAAPISIISIIFIRALNEFGRLYPDIRLHISQSNELVDLIDKGIDVAIVGGAQPDSSWVSSTLGELDYCLFATPEYLAQAPKLTHPNDLEAHQLIKVWPLFNWHLKHPNGESFYFNGPTKLTLTDLHGAIESALDHGGILYGPELFVKQQIKEDRLKVLLPEWVGEQRRISILYHQRSQQPLKVRVFIEFMQSKAPELFSMA”, the “soluble on expression in E. coli” value is reported as “not soluble”. For “MGSDKIHHHHHHMSKIDELVFTPKQQDTITFPFQNVTLEVNEGTPRSGKTTADIFKMAYIYSISEDQNHLVTAYNQEQAFRLFMDGDGFGLMHIFGNLAEMKHDEHGDHLLIHSPNGPKKIYYKGGGKINSVGAITGMSLGTVTFLEINLLHKDFIEECFRRTFAAKNRFHLAELNPPAPNHPVLEIFSQYEKSGRYKWRHWTAKDNPALSDERKQEIYNEVKHSAYLLQRDWYGKRVLPAGIIYETFDVEANQIKKMQGHPIEMVFFGDGGQQDATVCECYVITEHEAEGGYTYNLNQVATYYHSGRDTGQVKAGSTYAIEIKQFIQWCMKEYEVPVNEPVFIDPACRWLREELEKVGVDTAGADNNAHDVTGKAQGIEVGIERMQSLLSERRYLLVEQPNDQYDHYSWLQEIGMYVRDENSGKPVDKNNHAMDTSRYATNYFYRNYEDI”, the “soluble on expression in E. coli” value was “not soluble”. With “MGSDKIHHHHHHMTTHTKPGLRPANPNFSSGPCAKRPGWSVEALKNAALGRSHRAKIGKTKLEQAIELTREILQVPADHRIGIVPASDTGAVEMALWSLLGERGVDMVAWESFGSGWVTDVVKQLKLPDVRKLEAGYGELPDLAKIDFDRDVVFTWNGTTSGVRVPNGDFIPADRKGLTICDATSAAFAQRLDFEKLDVVTFSWQKVLGGEGAHGMLILSPRAVARLESYKPAWPLPKIFRLTSGGKLIEGIFKGETINTPSMLCVEDYLDALHWAKSIGGLDVLVARADANAAVLDGFVDKSSWLGHLAVQPATRSNTSVCLSFTDPDVAALDADGQATFAKGLVSALDKEGVAYDIGSYRDAPPGLRIWCGATVETSDLETLLPWLDWAFAAQKASLKAAA” the “soluble on expression in E. coli” value was “not soluble”. With “MGEITQYSVSPALPAGLAIDPQTGVITGTPTAVTASAVYTVTGANSVDSVQALLTIEVAAVAVPPVGLVYVDRLPEYIVGVPITYNEPAYTGGEVTQFSISPALPAGLTLNTQSGVISGTPTVELAQTTFFITASNSAGLEHHHHHH” the “soluble on expression in E. coli” value was “not soluble”. In the case of “MPAHSLSLYQYYRPPLDWQAQLAFYRLRAVAGMEWFSNTDNDCLEKIAQDKQALEYGRTLQIDDIRAVVHIIHEAHLHRFKLTLTFTPDSPIAGLQKLITQVRRILDLDADMQQIEHNLQRLTDLKLIPKSGLRIPGAGSLEHHHHHH”, the “soluble on expression in E. coli” value is reported as “not soluble”. For “MSLYYEQPIYIATQENWDLELNPQIRTNRGFGLYSTLRFLDSPYSTGELNFGAFRENSSYFHDENLKNQTHYGIELKYSRDDLIKSLLSDNFQEGLWIDATYLNDVDYLNLGSRDYRDLNSLVTSKINYFLADENNFYGAYARYYIDTSKLSNNTTLQEYPSFQYHRFLNNLFDERLRYSFDASFHNFYRPAGSYANELNLDLPISYHNAFFGDFLHFTFTERFYASFVNYSNDPERNHEHYFRNTHDFNLYTDLSKAYENFFHTLNLGVNYILPGAKSGKITQDYLEEYDKENEHTSLYAVQYFYNNEGQKKLKHRISLDYLNKQNEFYELENLLTYYFNENINLNSEVLYSYEQSRFTNVISQIEVNTNSKFNWMFSHAYQNDEYGKYSFIGTRANYIATPNYNLFGGIWFDTQRAHANMWELGYTYQRKCWNYSLMYRERIDPQLTSGGITAKNQSGVYFIFNFYPLGGVKYDFSLAESENKIEGHHHHHH”, the “soluble on expression in E. coli” value was “not soluble”. For “MRKQALHPRTAVINKAQKNQSKRARSDALLWLAANFPEAFDNSLRIRPLKIGIMSDILQHAEKAEQVGISKSKLREAVVLFTRRLDYLACLKAREVRIDLHGNPVAEVTEEEAEHASMKIKKRVEKSVKNARKQVNAKAANHSHVNSQPSAVSSVKPMNSFDSHPEPLLPIYPLRSSTYASQNVAMQSAKSPSVVVKHKAPKQYDPDAVARLKEKLGLSRKAEEKKETTE”, the “soluble on expression in E. coli” value was “not soluble”.
